{"source": "paper PMC11060668", "biological_target": "T1, PTP1B (residue 1-321) (UniProt P18031)", "T1 sequence": "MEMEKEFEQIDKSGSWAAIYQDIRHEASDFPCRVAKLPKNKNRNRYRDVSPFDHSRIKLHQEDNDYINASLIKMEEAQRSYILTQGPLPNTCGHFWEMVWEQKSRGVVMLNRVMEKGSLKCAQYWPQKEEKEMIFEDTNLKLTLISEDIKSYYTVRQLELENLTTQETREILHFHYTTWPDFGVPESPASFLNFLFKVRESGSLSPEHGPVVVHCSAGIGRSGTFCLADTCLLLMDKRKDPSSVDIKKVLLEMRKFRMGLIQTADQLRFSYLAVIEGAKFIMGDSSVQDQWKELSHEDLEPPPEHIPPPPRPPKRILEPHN", "note": "Where no end group is shown, it is not given here. [ ]: non-standard residue; d: D form. pY = N[C@@H](Cc1ccc(OP(=O)(O)O)cc1)C(=O)O"}
{"binder": "ELD[pY][pY]DSHN", "note": "[alpha-actinin4 derived di-phospho-tyrosine peptide ELDpYpYDSHN]", "values": [{"measurement": "kcat/KM of dephosphorylation of the peptide by purified PTP1B", "value": "2.17e+06", "unit": "M^−1 S^−1"}]}
